# Laboratory results: article PMC11551737, “Structural and functional insights into the interaction between the bacteriophage T4 DNA processing proteins gp32 and Dda” (Nucleic Acids Research, 2024)
# Entries after “also recorded” stand apart in the source; their conditions may differ.
# B1: wild-type gp32: bacteriophage T4 single-stranded DNA-binding protein, full length, N-terminal 6xHis-tag (protein)
# chain: MFKRKSTAELAAQMAKLNGNKGFSSEDKGEWKLKLDNAGNGQAVIRFLPSKNDEQAPFAILVNHGFKKNGKWYIETCSSTHGDYDSCPVCQYISKNDLYNTDNKEYSLVKRKTSYWANILVVKDPAAPENEGKVFKYRFGKKIWDKINAMIAVDVEMGETPVDVTCPWEGANFVLKVKQVSGFSNYDESKFLNQSAIPNIDDESFQKELFEQMVDLSEMTSKDKFKSFEELNTKFGQVMGTAVMGGAAATAAKKADKVADDLDAFNVDDFNTKTEDDFMSSSSGSSSSADDTDLDDLLNDL
# modifications: left off: 6xHis, N-terminal, kept
# Key:
# [1] = system: Dda binding to ssDNA (5′F-T30); test: Electrophoretic mobility shift assay of Dda binding to 5′F-T30 ssDNA with or without gp32; parameters: species or system bacteriophage T4; details: EMSA, 5 nM 5′F-T30, 100 nM gp32, 10 mM or 150 mM NaCl, 10 min room temperature; three independent sets, Hill fit
# Description: Varying amounts of Dda were mixed with 5 nM 5′F-T30 with or without 100 nM gp32 in 25 mM HEPES, pH 7.5, 5 mM MgCl2, 0.1 mM EDTA, 2 mM β-mercaptoethanol, 1 mg/ml bovine serum albumin, 5% glycerol, 0.05% Orange G and either 10 mM NaCl or 150 mM NaCl. Samples were incubated at room temperature in the dark for 10 min before separating on a 6% 100:1 acrylamide:bisacrylamide gel at 4°C. Gels were imaged on an Amersham Typhoon RGB Imager (Cytiva) with excitation using a 488 nm laser and emission measured after a 525BP20 filter. Data were quantified using ImageQuant software (GE Healthcare) and fit to the Hill equation.
# Figure S6. gp32 enhances the affinity of Dda for ssDNA. (A) Electrophoretic mobility shift assays (EMSAs) of 5 nM 5′-F-T30 with increasing concentrations of Dda at 10 mM NaCl and 150 mM NaCl. (B) EMSAs of 5 nM 5′-F-T30 with 100 nM gp32 and increasing concentrations of Dda at 10 mM NaCl and 150 mM NaCl. ( C) The fraction of Dda bound DNA from three independent sets of EMSAs is plotted (average and standard deviation) and fit to the Hill equation. (D) The average and standard deviation of the apparent K d for each condition are given.
# (1 picture or pasted object on this page, not shown here)
# wild-type Dda = test: Dda-dependent DNA unwinding assay with gp32 variants (fluorescein-quenched replication fork substrate, no annealing trap); format: biochemical, bacteriophage T4; details: 375 nM gp32 variant, 25 nM wild-type Dda, 25 nM substrate, 2.5 mM ATP, triplicate experiments
# Description: A partial duplex substrate mimicking a replication fork was prepared by mixing equimolar concentrations of the following oligonucleotides: loading strand - […]/36-FAM/, displaced strand - […], and leading strand - […] in 10 mM HEPES/1 mM EDTA. The sample was heated to 95°C for 5 min, followed by slowly cooling to room temperature. All concentrations are final, after mixing. ATP (2.5 mM), Mg(OAc)2 (5 mM) and gp32 (375 nM) in assay buffer (25 mM HEPES, pH 7.5, 10 mM KOAc, 0.1 mM EDTA, 2 mM β-mercaptoethanol, 1 mg/ml bovine serum albumin and 4 mM phosphoenol pyruvate) were mixed and added to wells in one row of a black 96-well plate. The reactions were initiated by adding 25 nM substrate, 25 nM wild-type Dda and 5 U/ml pyruvate kinase/lactate dehydrogenase in assay buffer with a multichannel pipette to the entire row simultaneously. Fluorescein fluorescence was measured 8 times per minute in a VICTOR Nivo Multimode Plate Reader (Perkin Elmer) at room temperature with excitation through a 480/30 nm bandpass filter and emission measured after a 530/30 nm bandpass filter.
molecule,measurement,setting,value
B1,Effect of gp32 on Dda binding to ssDNA (in words),[1],increases the affinity of Dda for the ssDNA; also recorded: reduces the fraction of ssDNA bound by Dda
same,Rate constant of product formation (single exponential fit),"wild-type Dda; 5 mM Mg(OAc)2, pH 7.5, room temperature, fluorescein fluorescence",0.023 s⁻¹
same,Amplitude of the product formation curve (fluorescence),wild-type Dda; higher amplitude = more effective prevention of reannealing,280 000
